Assay results from the DeepSol protein solubility set.

Assay: soluble on expression in E. coli; label from the status in PepcDB or PDB records
With “DAAPAAGSTLDKIAKNGVIVVGHRESSVPFSYYDNQQKVVGYSQDYSNAIVEAVKKKLNKPDLQVKLIPITSQNRIPLLQNGTFDFECGSTTNNVERQKQAAFSDTIFVVGTRLLTKKGGDIKDFADLKGKAVVVTSGTTSEVLLNKLNEEQKMNMRIISAKDHGDSFRTLESGRAVAFMMDDALLAGERAKAKKPDNWDIVGKPQSQEAYGCMLRKDDPQFKKLMDDTIAQVQTSGEAEKWFDKWFKNPIPPKNLNMNFELSDEMKALFKEPNDKALNLEHHHHHH” the “soluble on expression in E. coli” value was “soluble”. In the case of “MMSDQKDEEEYSHSSNRSEDEDEERTIDNEINRSPNKSYKLGNIIGNGSFGVVYEAICIDTSEQVAIKKVLQDPQYKNRELMIMKNLNHINIIYLKDYYYTESFKKNEKNIFLNVVMEYIPQTVHKYMKYYSRNNQALPMFLVKLYSYQLCRALSYIHSKFICHRDLKPQNLLIDPRTHTLKLCDFGSAKNLLAGQRSVSYICSRFYRAPELMLGSTNYTTHIDLWSLGCIIAEMILGYPIFSGQSSVDQLVRIIQVLGTPTEDQLKEMNPNYADIKFPDVKSKDLRKVFPKGTPDEAINLITQFLKYEPLKRLNPIEALADPFFDELRDPCIKLPKYIDKLPELFNFCKEEIQEMSMECRRKIIPKNVYEEFLMVDE”, the “soluble on expression in E. coli” value is reported as “not soluble”. With “MNMNQTTSPALSQVETAIRVPAGNFAKYNYYSVFDIVRQTRKQFINANMSWPGSRGGKTWDLAMGQAQYIRCMFRENQLTRRVRGTLQQTPDNGTNLSSSAVGGIQGQAERRPDLATLMVVNDAINQQIPTLLPYHFPHDQVELSLLNTDVSLEDIISESSIDWPWFLSNSLTGDNSNYAMELASRLSPEQQTLPTEPDNSTATDLTSFYQTNLGLKTADYTPFEALNTFARQLAITVPPGGTVDCGYSACQPAVLEHHHHHH” the “soluble on expression in E. coli” value was “not soluble”. With “MNELLAEMAAVSSRRKQSKPRRMSGEGDAMMSPIDLSTKSFDENNCEKGAGGALPLEDRSNILPHFSVPFANPQQFLSLCAQLGNSSSRNVSSTASTTSSCPIQSCSQSFSSPAALTWHVLDAHEDEQEIFSCDVCTTTFSNGQDIREHKCQKTLASRSTSVPPSTIPSSVCFLSTPTTPCLQFSINESIGTSEIREEDEEEDMDVEDGEHVANQLFGHLLQKSDDKSKMASLFNHAFPPFAAFPNMPPPFLMRQPFDPRADVFAAGRHDNDDDWEALMEISTSDEAEKIRALVGDKAVPTTDPNQCILCRRVLSCKSALQMHYRTHTGERPFKCKICQRAFTTKGNLKTHMGVHRSKHSFRGLPISLPPQLAAMHQHQHQIAPPQRIHIHNPPTSAASAAAAVAQIQASQQCPICQQRFLNAGELAVHITEHRNSLTQPPRVMPTPTTTRVQTFPFVPFFTTPPSLNATDMSTQFNLANILSAQLKNDSSPNTDTSSVEEKITRDDPPKMASLSPSNSSDSSSSVRQDILESSEFEEKLKKLEEPPILEQQVSTTPNPKNENPLLAMQKMWAETEPPPPRQMPVLSKHQCGVCFKHFSSSSALQIHMRTHTGDKPFKCDMCGRAFTTRGNLKVHMGTHSWQQSPSRRGRRIFDVASSVTEKPMLQSPILPTSGAPGASPLAMLGPNGLSGLEMMMMLWRTVCSVCQKVCQSPNELEQHLKEHLNNGSSAAPTPLASAATPPPS” the “soluble on expression in E. coli” value was “not soluble”. With “MTSVNKKRNARKNQEPTSNMTIETEDGTQADRPKKRPAKKRSKVVRRAAQYGDVNEPILRDFVKATIQTGVKQLSTEFLNLKMETQPCNKPKTGHEGHPEKNRYKDVYCIDDTRVVLKWPEDSPSDYIHANWVKINGANKFICTQGPTEKTVDDFYRLIWQEKAPCVVMLCNIMECGKKKCEQYWPETADGQMILMDGKLTVKIAEPAKEVEQNILLMKITVIDDKGTSHNFEHWQWKAWPDRGVPELPMALKTASPIVVHCSAGIGRTGSIVGLEIALVKFCAGEKVVLKDIVKEIRNQRHGSVQTDAQYLFMHRVLLALAENRKITSPELSAFVAEYDKVIATKNG” the “soluble on expression in E. coli” value was “not soluble”. With “MTELDQFWPACLARLEAELSSQQFNTWIKPLTAEAGDEGIALFAPNRFIMQFIKDRFLPRIEELAVELVGELPVELRLGAPTARPAAPVAGNSQPKAKEPAKAAASAPAAPSPAKQAAVKAIGGSHESTRLNPSFTFDTLVTGKGNQLARAAAMQIAENPGDQAYNPLFVYGGVGLGKTHLIQAIGNHVFQKNPQAKIRYIHAERYVADIMRAYQHKAFDEFKRYYHSLDLLLIDDIQFFAGKNRTQEEFFYAFNALIEGGKQVIMTCDSYPKQIEGMEERLISRFSWGLTVEIQPPELEMRVAILMKKAEADSIKLEHNVAFFIAQNVRSNVRELEGALKRVVAYARFTSQNITLELVKEALKDILAAGNRQVTVDAIQKTVAEYYKIKLSDMHSKKRSRDIARPRQVAMALAKELTQLSLPNIGDAFGGRDHTTVLHACKTITEMRASDADIAHDYEALLSMLRNLEHHHHHH” the “soluble on expression in E. coli” value was “not soluble”. In the case of “GPGSMMGTDTEKGLYLHAAWDLFERLRPGQQLCVSFFEIYCNSLYDLLNHRHPIVLREDANRRVNICGVTWRTVATVEELWQLVRSGMEQRRTGTTTANEHSSRSHAVLSLRITDSENPDFTGSVNFVDLAGSERAADTAAHDRLTRLEGAEINKSLLALKECIRALDEKKKHVPFRGSRLTEVLRASFTGNSKTVMIAAVSPSSVNHEHTSNTLRYAFRVKGLSVPSVWPSTARNAPRLCLPVARSRSRAAAAVAAANEPTSAPAATECSFNSKHTDDAGSPRRPRHARRRRHAYKTAHEPQDEIGISDTNESCTSDTATESPRPRMQITQKACRHQVGRNSTGSSTSAKRHKTCCLVPYMVESLSQRRTRHRTRKERLPLPRAACSIGESSDLLLANASGTDSKSRALAEVILPHVKGATRHPSSLIAVDVAALEQRLTLQIIAQLRLDLGQQLEEVLMEKDTIISALRSENEKLRQALDKTGNVEQFYGGSPCDGEVQKRPAVLPALLYPSSPSILQEQLSSGVSTASVGDEPPLRVLSE”, the “soluble on expression in E. coli” value is reported as “not soluble”. In the case of “MSATEKDKTPLLGVSQPISLAHPDSKDIAQTTLLIETLKKFGSYEPKEETEQRMEVLRNLNRLVKEWVKNVTAMKIPNGEGVNAGGKLFTFGSYRLGVHSSGADIDTLAVVPRHIDRSDFFTSFKEMLNNDPNVTELHGVEEAFVPVMKLKYSGVELDILFARLALKEVPDTQELSDDNLLRNLDQESVRSLNGCRVAEQLLKLVPRQKEFCVTLRAIKLWAKNHGIYSNSMGFFGGITWAILVARACQLYPNASPSRLVHRMFFIFSTWTWPHPVVLNEMNNDRNDIPTLCELVWDPRRKNTDRFHVMPIITPAFPEQNSTHNVTRSTATVIKNEICEALEICRDISEGKSKWTALFEEVNFFSRYKHFIALIMAAPNEEEELNYGGFLESRIRLLVQSLERNQDIIIAHNDPNKHKPSPNAKFDVNPENKRVTVWFIGLEFAEHAKTLDLTNEIQRFKTNVELQASNVKGIGPNCQVQIDMFYVKRNSLIQVISAADLRRGRRWKKVVPIATNTSVSSSTPRSVVRTTSTSSVPTTPTGLAAPKTPLSASVSATNEPDSTTNGTPLSRKRSMDEESSTTVTSQISDESVPKKKTRDDTLEENRVSMVVEVSNVVVEQRTKVVQEIVDLQADNGLNTSNGLEASEQKMEVPQSV”, the “soluble on expression in E. coli” value is reported as “not soluble”. For “MEDPVFTFGLIADVQYADIEDGENYLRTRRRYYRGSADLLRDAVLQWRRERVQCVVQLGDIIDGHNRRRDASDRALDTVMAELDACSVDVHHVWGNHEFYNFSRPSLLSSRLNSAQRTGTDTGSDLIGDDIYAYEFSPAPNFRFVLLDAYDLSVIGREEESEKHTHSWRILTQHNHNLQDLNLPPVSVGLEQRFVKFNGGFSEQQLQWLDAVLTLSDHKQERVLIFSHLPVHPCAADPICLAWNHEAVLSVLRSHQSVLCFIAGHDHDGGRCTDSSGAQHITLEGVIETPPHSHAFATAYLYEDRMVMKGRGRVEDLTITYS”, the “soluble on expression in E. coli” value was “not soluble”. In the case of “MDDDPHFDQNVQTVIAKTEAYITESVKAGGTGRALRDAHAKGYGLVRGEVEILDGLPPEYAQGIYATPGTHDALIRFSNGSPHAGADARLGAATGLALKIFDIPGPTLLEDEPDTGTFDYANINGPIFFCNTVEHYLFIQELFLNAPAYFSQGRPGAHRFFTDFVTGKGTLDQDDWAWDEFLAFLRLSKTPPANLLLSSYWTMGAVRHGDYIAKVRITPDPSFAAAVVRRDIDPTSAQEVFRPALEAELQERPYAFDIQVQLCTDLERMPVEDTTVEWPEQLSPSVTVAKLRLPRQDISGPENLEKMDSLSFTPWRVTAEHAPLGNIMRSRKEVYRQSSMERHKLEHHHHHH”, the “soluble on expression in E. coli” value is reported as “not soluble”. In the case of “QEARTGNDIAQLPAISVTGREISDLTEGTNAYTTEAMSTATGLTLSPRETPQSVSVVTRQQIEDQGLTDTGAILATAPGISVTRSDSNRYSFSARGFTIDNFQFDGLVSPILSQWNYGSTDMDAAIYDHVEIVRGATGLMTGSGNPSAAVNFVRKRPLREFAATFNASVGSWDYVRGDADISVPITEDGRIRSRLVAAYSQGDSYVHFLDTRRRTFYGVVSADLTPDTVLTTSVEYQHNHSNGFGSGFPLFYSDGSRTDFNRSVANNAPWARQDTEATTYFVDLTHRFTNDWKLRAAYSHTDGRYLMKHVYRGGYPDRHTGIIAAPPAFSNYDGNLDRDDIHFSLSAPFEAFGLRHEVALGWMSIDNHSDIQRYAMVGPAPAIGSFFDWRRAGSHHHHHHHIQEPSWADTLSPADDVRTKQTGAYLVGRFALAEPLHLIVGDRWSDWKTKQMYFGSRREYRIKNQFTPYAGLTYDINDTYTAYASYTEIFQPQNARDTSGGILPPIKSKSYELGLKAAYLEGRLNTSAALFQTRQDNLAQVIPGSSIPGFPNMQASRAASGAKVEGIDLEASGQILPDWNIGASYTHFTTKDASGNPINTNHPRSLFKLYTTYRLPGALHRLTVGGGVDWQSRMYQAAASPRGNVEVEQDSYALVSLMARFDFNKKLSATLNVNNLFDKKYYDQIGFYSQGWWGAPRNVMLNLRAQY”, the “soluble on expression in E. coli” value is reported as “soluble”. For “MNTKARKYIPLTEATYYILLSLVKPMHGYGIMQLVEEMTNGEVKLGPGTLYGNTTKLLKEKLIVEVASTDRKKCYELTPFGKEVLELEYNRLQRSVRNGNSILGE”, the “soluble on expression in E. coli” value was “soluble”. In the case of “GDAFCNPQATMDFLRFKLHQHQREVFAVMMLDSQHRLIEFNEMFFGTIDSASVYPREVVKAVLLCNAAAVIFAHNHPSGCAEPSSADRRITERLIAALATIDVPVLDHIVVADTCVSFAERGLL”, the “soluble on expression in E. coli” value is reported as “not soluble”. For “MAKKNNKTKIQKPEAALQTDVAQITATGRVIAEHPSNFITPQKMRALFEDAESGDIRAQHELFADIEERDSDIAANMGTRKRALLTLNWRVAPPRNATPEEEKLSDQAYEMMDSLPTLEDLIMDLMDAVGHGFSALEVEWVFSDGLYLPRNFIHRPQSWFKWDKDNGLLLRTRENPEGEALWPLGWVVHTQKSRSVQQARNGLFRTLSWLYMFKHYAVHDFAEFLELYGMPIRIGKYGAGATKEEKNTLLRAVAEIGHNAAGIMPEGMEIELHNAANGTTATSNPFLQMADWCEKSAARLILGQTLTSGADGKSSTNALGNIHNEVRRDLLVSDAKQVAQTITSQIIGPFLQINYPHADPNRVPKFEFDTREPKDIAVFADAIPKLVDVGVQIPESWVRDKLVIPDVQEGEAVLVRQVPDNPVNRTALAALSAHTVPSKATGRHQEILDGALDDALVEPDFNSQLNPMVRQAVAALNACNSYEEADAALNALYPNLDNAKLRTYMQQALFISDILGQDHA”, the “soluble on expression in E. coli” value was “soluble”. With “MPEDILVDIKRDYVLSKLRDNERIDGRGFDEFRKVEIIPNVIEKAEGSALVKLGDTQVVVGVKMQPGEPYPDTPDRGVIIVNAELVPLASPTFEPGPPDENSIELARVVDRGIRESEAVDLSKLVIEEGEKVWIVFVDIHALDDDGNLLDASALAAIAALMNTKVPAERFDLGEDYLLPVRDLPVSVTSLIVGNKYLVDPSREEMSVGDTTLTITTDKDDNVVAMQKSGGYLLDEKLFDELLDVSINCARKLREKFKEI” the “soluble on expression in E. coli” value was “soluble”.
